Measured values reported in US12173052B2.

How the values were obtained:
[1] = target: V5 variants (YU-2 gp120, residues 458gp120 and 459gp120)
[2] = target: loop D variants (YU-2 gp120, residues 279gp120 and 280gp120)

Row | Substance | IC50, in vitro pseudovirus neutralization [1] | IC50, in vitro pseudovirus neutralization [2]
1 | NIH45-46^G54W(HC)S28Y(LC) (antibody) | < 0.01 µg/mL | > 0.1 µg/mL
2 | 45-46m7 (45-46m2+HC W47V) (antibody) | < 0.01 µg/mL | > 0.1 µg/mL
